Measurements reported in the supplement of paper PMC7877785.
± gives the uncertainty stated by the source.

Assay: self-splicing fitness, log relative to wild type (ln ratio); higher = more splicing; Tetrahymena group I intron in knt gene, E. coli kanamycin selection, DiMSum; sequences stand for … in CUCUCU…GGAGGGAAAAGUUAUCAGGCAUGCACCUGGUAGCUAGUCUUUAAACCAAUAGAUUGCAUCGGUUUAAAAGGCAAGACCGUCAAAUUGCGGGAAAGGGGUCAACAGCCGUUCAGUACCAAGUCUCAGGGGAAACUUUGAGAUGGCCUUGCAAAGGGUAUGGUAAUAAGCUGACGGACAUGGUCCUAACCACGCAGCCAAGUCCUAAGUCAACAGAUCUUCUGUUGAUAUGGAUGCAGUUCACAGACUAAAUGUCGGUCGGGGAAGAUGUAUUCUUCUCAUAAGAUAUAGUCGGACCUCUCCUUAAUGGGAGCUAGCGGAUGAAGUGAUGCAACACUGGAGCCGCUGGGAACUAAUUUGUAUGCGAAAGUAUAUUGAUUAGUUUUGGAGUACUCGUGGUCG
In short: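 Pooled colonies went to amplicon sequencing on an Illumina HiSeq 2500 after six replicate transformations. The plates were LB agar with 100 μg/mL carbenicillin, 50 μM IPTG and 0.2% rhamnose, with or without 25 μg/mL kanamycin, incubated overnight at 37°C or 30°C. The E. coli BL21(DE3) library had all eight P1ex-region intron nucleotides randomised, the intron placed in the knt kanamycin-resistance gene on pET-22b(+). DiMSum fitness is the error-weighted combination of replicate fold changes, kanamycin against none, normalised to wild type.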

Sequence	self-splicing fitness (ln) (30 °C)	self-splicing fitness (ln) (37 °C)
UGCCAGCAAUAUUACGUCUC	-4.62 ± 0.29	-2.11 ± 0.25
UGCGAGCAAUAUUACGAACU	-1.88 ± 0.11	0.0543 ± 0.09
UGCGAGCAAUAUUACGAAGU	-3.37 ± 0.3	-0.334 ± 0.29
UGCGAGCAAUAUUACGACCG	-1.72 ± 0.17	0.112 ± 0.21
UGCGAGCAAUAUUACGAGUC	-3.05 ± 0.21	-2.27 ± 0.2
UGCGAGCAAUAUUACGAUAA	-3.41 ± 0.23	-2.01 ± 0.18
UGCGAGCAAUAUUACGCAAA	-3.58 ± 0.28	-2.04 ± 0.17
UGCGAGCAAUAUUACGCCGG	-3.39 ± 0.34	–
UGCGAGCAAUAUUACGCCGU	-3.36 ± 0.23	-2.54 ± 0.3
UGCGAGCAAUAUUACGCCUG	-3.98 ± 0.22	-0.862 ± 0.13
UGCGAGCAAUAUUACGCGCG	-2.71 ± 0.2	-2.72 ± 0.3
UGCGAGCAAUAUUACGCGCU	-3.43 ± 0.36	–
UGCGAGCAAUAUUACGCGUG	-4.3 ± 0.42	-1.12 ± 0.25
UGCGAGCAAUAUUACGGAAC	–	-2.25 ± 0.39
UGCGAGCAAUAUUACGGACG	-1.24 ± 0.15	-1.19 ± 0.17
UGCGAGCAAUAUUACGGCUC	-2.91 ± 0.31	-3.21 ± 0.41
UGCGAGCAAUAUUACGGGCA	-2.84 ± 0.21	-1.31 ± 0.18
UGCGAGCAAUAUUACGGGCG	-1.59 ± 0.061	-0.628 ± 0.086
UGCGAGCAAUAUUACGGUCG	-2.27 ± 0.25	-2.39 ± 0.27
UGCGAGCAAUAUUACGGUGC	–	-0.943 ± 0.2
UGCGAGCAAUAUUACGGUGG	-3.04 ± 0.23	-3.1 ± 0.33
UGCGAGCAAUAUUACGUAAA	-2.8 ± 0.1	-1.77 ± 0.18
UGCGAGCAAUAUUACGUAGG	-3.81 ± 0.18	-2.76 ± 0.21
UGCGAGCAAUAUUACGUAGU	–	-1.9 ± 0.19
UGCGAGCAAUAUUACGUAUA	-2.89 ± 0.25	-0.733 ± 0.22

Sequence	self-splicing fitness (ln) (30 °C)	self-splicing fitness (ln) (37 °C)
UGCGAGCAAUAUUACGUCUU	-2.61 ± 0.16	-2.04 ± 0.16
UGCGAGCAAUAUUACGUUUA	-2.19 ± 0.16	-2.99 ± 0.14
UGCGAGCAAUAUUACGUUUC	–	-2.62 ± 0.36
UGCGAGCAAUAUUACGUUUG	-3.45 ± 0.21	-2.88 ± 0.21
UGCUAGCAAUAUUACGAAUU	-4.43 ± 0.41	-1.98 ± 0.17
UGCUAGCAAUAUUACGAUCU	-0.537 ± 0.11	-0.24 ± 0.1
UGCUAGCAAUAUUACGCGCG	-0.603 ± 0.092	-1.08 ± 0.12
UGCUAGCAAUAUUACGCGCU	-1.96 ± 0.12	-0.777 ± 0.13
UGCUAGCAAUAUUACGCGGC	-3.02 ± 0.38	–
UGCUAGCAAUAUUACGGAGU	-4.11 ± 0.3	-2.34 ± 0.24
UGCUAGCAAUAUUACGGGUC	-2.99 ± 0.16	-2.62 ± 0.18
UGCUAGCAAUAUUACGGUAG	-1.49 ± 0.098	-0.852 ± 0.13
UGCUAGCAAUAUUACGUCUG	-0.586 ± 0.088	-0.323 ± 0.095
UGCUAGCAAUAUUACGUGAG	-3.51 ± 0.18	-1.78 ± 0.21
UGCUAGCAAUAUUACGUGGC	-3.1 ± 0.32	-2.6 ± 0.35
UGCUAGCAAUAUUACGUGUU	-3.87 ± 0.16	-2.21 ± 0.12
UGCUAGCAAUAUUACGUUCG	-0.807 ± 0.065	-0.115 ± 0.091
UGCUAGCAAUAUUACGUUGU	-2.59 ± 0.17	-3.8 ± 0.34
UGGAAGCAAUAUUACGAAUU	–	-1.99 ± 0.36
UGGAAGCAAUAUUACGACGG	-0.691 ± 0.065	-0.14 ± 0.084
UGGAAGCAAUAUUACGAGAU	-3.92 ± 0.26	-2.47 ± 0.21
UGGAAGCAAUAUUACGAGUG	-1.38 ± 0.09	-0.586 ± 0.12
UGGAAGCAAUAUUACGAUUG	-1.76 ± 0.12	-0.362 ± 0.12
UGGAAGCAAUAUUACGAUUU	-2.48 ± 0.087	-1.7 ± 0.092
UGGAAGCAAUAUUACGCGAA	-1.68 ± 0.16	-1.03 ± 0.15

Sequence	self-splicing fitness (ln) (30 °C)	self-splicing fitness (ln) (37 °C)
UGGAAGCAAUAUUACGCGCG	0.222 ± 0.15	0.698 ± 0.15
UGGAAGCAAUAUUACGCGGA	-1.17 ± 0.2	-1.88 ± 0.23
UGGAAGCAAUAUUACGCUAU	-2.52 ± 0.18	-2.72 ± 0.29
UGGAAGCAAUAUUACGCUUG	-3.54 ± 0.26	-2.53 ± 0.29
UGGAAGCAAUAUUACGGACA	-1.03 ± 0.13	-0.0422 ± 0.11
UGGAAGCAAUAUUACGGAUC	-2.47 ± 0.34	-1.54 ± 0.24
UGGAAGCAAUAUUACGGCUU	-2.94 ± 0.32	-1.73 ± 0.45
UGGAAGCAAUAUUACGGGCU	-3.13 ± 0.27	-1.32 ± 0.2
UGGAAGCAAUAUUACGGUUA	-1.04 ± 0.11	-0.0733 ± 0.099
UGGAAGCAAUAUUACGUCAA	-1.53 ± 0.12	-0.758 ± 0.13
UGGAAGCAAUAUUACGUCAG	-0.777 ± 0.12	-0.119 ± 0.16
UGGAAGCAAUAUUACGUCAU	-2.99 ± 0.35	-3.01 ± 0.3
UGGAAGCAAUAUUACGUGAA	-1.33 ± 0.096	-1.65 ± 0.12
UGGCAGCAAUAUUACGAAAG	-2.17 ± 0.14	-1.19 ± 0.13
UGGCAGCAAUAUUACGACCC	0.0617 ± 0.19	-0.655 ± 0.18
UGGCAGCAAUAUUACGACUU	0.0485 ± 0.093	0.468 ± 0.1
UGGCAGCAAUAUUACGAUGA	-0.639 ± 0.12	-0.971 ± 0.14
UGGCAGCAAUAUUACGAUGC	-3.93 ± 0.28	-2.65 ± 0.41
UGGCAGCAAUAUUACGCAAG	-3.83 ± 0.18	-2.44 ± 0.18
UGGCAGCAAUAUUACGCCCA	-1.66 ± 0.15	0.585 ± 0.24
UGGCAGCAAUAUUACGCCUA	-0.238 ± 0.21	0.697 ± 0.42
UGGCAGCAAUAUUACGCGAU	-2.67 ± 0.18	-2.01 ± 0.21
UGGCAGCAAUAUUACGCGGC	-4.17 ± 0.29	-2.23 ± 0.26
UGGCAGCAAUAUUACGCGUC	-3.54 ± 0.37	-2.21 ± 0.3
UGGCAGCAAUAUUACGCGUG	-1.25 ± 0.14	-0.356 ± 0.14

Sequence	self-splicing fitness (ln) (30 °C)	self-splicing fitness (ln) (37 °C)
UGGCAGCAAUAUUACGCUCA	-0.353 ± 0.13	0.629 ± 0.18
UGGCAGCAAUAUUACGGACC	-2.02 ± 0.33	-0.716 ± 0.24
UGGCAGCAAUAUUACGGAUU	-3.95 ± 0.24	-1.88 ± 0.2
UGGCAGCAAUAUUACGGCCG	-3.49 ± 0.16	-1.77 ± 0.16
UGGCAGCAAUAUUACGGCGA	0.0623 ± 0.12	0.97 ± 0.13
UGGCAGCAAUAUUACGGCUC	-0.609 ± 0.082	-0.683 ± 0.11
UGGCAGCAAUAUUACGUAUU	-2.73 ± 0.12	-1.27 ± 0.11
UGGCAGCAAUAUUACGUCCA	-1.23 ± 0.12	-0.471 ± 0.16
UGGCAGCAAUAUUACGUCUU	-0.0989 ± 0.044	0.494 ± 0.059
UGGCAGCAAUAUUACGUUAU	-2.25 ± 0.11	-1.91 ± 0.16
UGGCAGCAAUAUUACGUUGG	-2.33 ± 0.11	-0.227 ± 0.13
UGGGAGCAAUAUUACGAUGU	-3.95 ± 0.33	-2.53 ± 0.3
UGGGAGCAAUAUUACGAUUG	–	-2.29 ± 0.4
UGGGAGCAAUAUUACGCACG	-3.26 ± 0.37	–
UGGGAGCAAUAUUACGCCGA	-0.637 ± 0.4	-0.137 ± 0.24
UGGGAGCAAUAUUACGCCUA	-2.63 ± 0.44	-1.75 ± 0.32
UGGGAGCAAUAUUACGCGAG	-1.25 ± 0.19	-2.26 ± 0.27
UGGGAGCAAUAUUACGCUUA	-2.55 ± 0.11	-0.767 ± 0.098
UGGGAGCAAUAUUACGCUUG	-1.62 ± 0.23	0.249 ± 0.23
UGGGAGCAAUAUUACGGCAG	-3.28 ± 0.21	-1.34 ± 0.17
UGGGAGCAAUAUUACGGCCU	-2.18 ± 0.16	-1.9 ± 0.2
UGGGAGCAAUAUUACGGCGC	-1.12 ± 0.38	–
UGGGAGCAAUAUUACGGGAA	-2.98 ± 0.3	-1.87 ± 0.24
